Measured values as given in publication PMC1635258.
Read-outs that look alike come from different tables or passages of the source.

Assays:
[1] = molecular target: T1, hRPA (replication protein A heterotrimer p70/p32/p14) (human, UniProt P27694;P15927;P35244 1-616;1-270;1-121); test: EMSA
[2] = molecular target: T1, hRPA (replication protein A …); test: EMSA; remark: listed apart in the source

T1 sequence (P27694 whole entry, chain 1 of 3): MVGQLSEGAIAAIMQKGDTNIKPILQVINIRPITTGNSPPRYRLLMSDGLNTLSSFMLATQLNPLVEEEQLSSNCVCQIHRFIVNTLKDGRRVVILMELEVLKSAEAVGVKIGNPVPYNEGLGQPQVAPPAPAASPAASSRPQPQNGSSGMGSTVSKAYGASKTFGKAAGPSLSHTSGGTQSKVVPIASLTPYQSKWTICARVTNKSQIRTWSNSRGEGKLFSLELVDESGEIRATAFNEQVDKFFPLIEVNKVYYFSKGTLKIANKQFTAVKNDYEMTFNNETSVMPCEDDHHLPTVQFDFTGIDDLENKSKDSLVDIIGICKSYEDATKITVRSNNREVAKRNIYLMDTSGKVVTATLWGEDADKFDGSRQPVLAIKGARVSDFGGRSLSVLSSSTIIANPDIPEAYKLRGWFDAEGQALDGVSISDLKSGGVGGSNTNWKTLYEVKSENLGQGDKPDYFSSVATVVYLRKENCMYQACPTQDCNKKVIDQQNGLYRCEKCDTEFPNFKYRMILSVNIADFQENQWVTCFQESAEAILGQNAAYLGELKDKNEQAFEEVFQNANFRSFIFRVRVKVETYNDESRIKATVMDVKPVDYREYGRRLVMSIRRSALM
T1 sequence (P15927 whole entry, chain 2 of 3): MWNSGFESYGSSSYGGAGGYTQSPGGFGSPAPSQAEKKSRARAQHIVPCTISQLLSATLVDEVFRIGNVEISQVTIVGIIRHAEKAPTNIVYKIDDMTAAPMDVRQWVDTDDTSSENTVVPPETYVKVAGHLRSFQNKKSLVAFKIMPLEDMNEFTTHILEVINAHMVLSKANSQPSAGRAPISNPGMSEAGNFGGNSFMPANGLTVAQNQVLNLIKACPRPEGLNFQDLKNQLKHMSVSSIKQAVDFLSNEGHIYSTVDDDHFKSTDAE
T1 sequence (P35244 whole entry, chain 3 of 3): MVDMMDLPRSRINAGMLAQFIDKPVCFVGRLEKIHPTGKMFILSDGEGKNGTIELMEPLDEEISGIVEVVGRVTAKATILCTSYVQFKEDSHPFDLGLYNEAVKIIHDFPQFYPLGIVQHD

## TTTTTTTTTTTTTTTTTTTTT (ssDNA) [T21]
[1]
  binding result: binds

## GGGTTAGGGTTAGGGTTAGGG (structured_DNA) [htelo]
[2]
  binding result: binds
